Among the targets are HLA-A*11:01; HLA-A*31:01; HLA-A*33:01; HLA-A*68:01; HLA-A*03:01.
What all share (assay): IEDB peptide-MHC binding, purified MHC/competitive/radioactivity; filed as Kd, often an IC50 or EC50 that approximates it; ≥ and ≤ were set here for values at or beyond the usual limits of such assays
The mark [1] stands for this setting: source organism: Vaccinia virus WR.
Setting [2] is: source organism: SARS coronavirus Tor2.
The mark [3] stands for this setting: source organism: Mammarenavirus whitewaterense.

For QISRVNDLNR, the dissociation constant Kd worked out at 335 nM with HLA-A*11:01 (setting [1]); 122 nM in the experiment with HLA-A*31:01 (setting [1]); 913 nM in the experiment with HLA-A*33:01 (setting [1]); 88 nM in the experiment with HLA-A*68:01 (setting [1]); 1940 nM in the experiment with HLA-A*03:01 (setting [1]).

As for RFVKFNDYR, the Kd is 14800 nM with HLA-A*11:01 (setting [1]); at most 1 nM with HLA-A*31:01 (setting [1]); 237 nM in the experiment with HLA-A*33:01 (setting [1]); 38.2 nM with HLA-A*68:01 (setting [1]); 19800 nM with HLA-A*03:01 (setting [1]).

On to RLGLVLDDY, for which the Kd with HLA-A*11:01 (setting [1]) is 3560 nM; with HLA-A*31:01 (setting [1]) it was at least 77900 nM; with HLA-A*33:01 (setting [1]), at least 77700 nM; with HLA-A*68:01 (setting [1]), at least 44500 nM; in the experiment with HLA-A*03:01 (setting [1]) it was 11.1 nM.

As to RVVVQIDPEY, the dissociation constant Kd is at least 23400 nM with HLA-A*11:01 (setting [1]); at least 70000 nM with HLA-A*31:01 (setting [1]); at least 70000 nM with HLA-A*33:01 (setting [1]); 1190 nM with HLA-A*68:01 (setting [1]); 14200 nM with HLA-A*03:01 (setting [1]).

As for SAEDNYLAK, the Kd with HLA-A*11:01 (setting [1]) is 56.1 nM; in the experiment with HLA-A*31:01 (setting [1]), at least 53500 nM; with HLA-A*33:01 (setting [1]), at least 77700 nM; with HLA-A*68:01 (setting [1]) it was 11400 nM; in the experiment with HLA-A*03:01 (setting [1]) it was at least 26300 nM.

Regarding SAGFSLWIYK, the Kd with HLA-A*11:01 (setting [2]) was 0.0935 nM; in the experiment with HLA-A*31:01 (setting [2]), 52.1 nM; with HLA-A*33:01 (setting [2]) it was 3430 nM; with HLA-A*68:01 (setting [2]) it was 31.1 nM; with HLA-A*03:01 (setting [2]) it was 75.3 nM.

With SCSYKIGHH, the dissociation constant (Kd) is at least 64800 nM in the experiment with HLA-A*11:01 (setting [3]); at least 45800 nM with HLA-A*31:01 (setting [3]); at least 77700 nM with HLA-A*33:01 (setting [3]); at least 77600 nM with HLA-A*68:01 (setting [3]); at least 78000 nM with HLA-A*03:01 (setting [3]).

As to SFKSINKVY, the Kd with HLA-A*11:01 (setting [1]) is 2770 nM; with HLA-A*31:01 (setting [1]), 2130 nM; with HLA-A*33:01 (setting [1]), at least 77700 nM; in the experiment with HLA-A*68:01 (setting [1]) it was 6900 nM; in the experiment with HLA-A*03:01 (setting [1]), 1830 nM.

Regarding SIMETIDPVY, the Kd was 4.36 nM with HLA-A*11:01 (setting [1]); 9760 nM with HLA-A*31:01 (setting [1]); at least 36600 nM with HLA-A*33:01 (setting [1]); 29 nM with HLA-A*68:01 (setting [1]); 222 nM in the experiment with HLA-A*03:01 (setting [1]).

As to SINSEYIESK, the Kd with HLA-A*11:01 (setting [1]) was 55.4 nM; with HLA-A*31:01 (setting [1]) it was at least 70000 nM; with HLA-A*33:01 (setting [1]), at least 70000 nM; in the experiment with HLA-A*68:01 (setting [1]), 2580 nM; with HLA-A*03:01 (setting [1]) it was 7720 nM.

With SLVKKNKKR, the Kd is at least 77900 nM with HLA-A*11:01 (setting [1]); at least 77900 nM in the experiment with HLA-A*31:01 (setting [1]); at least 77700 nM in the experiment with HLA-A*33:01 (setting [1]); at least 77700 nM in the experiment with HLA-A*68:01 (setting [1]); at least 78000 nM with HLA-A*03:01 (setting [1]).

SMDVLAEKK: the dissociation constant (Kd) in the experiment with HLA-A*11:01 (setting [1]) is 25.7 nM; with HLA-A*31:01 (setting [1]) it was at least 22600 nM; with HLA-A*33:01 (setting [1]) it was at least 77700 nM; with HLA-A*68:01 (setting [1]), 1270 nM; with HLA-A*03:01 (setting [1]) it was 911 nM.

Take SRIFEELVWK: the Kd in the experiment with HLA-A*11:01 (setting [3]) was 259 nM; with HLA-A*31:01 (setting [3]), 3640 nM; in the experiment with HLA-A*33:01 (setting [3]), at least 52000 nM; in the experiment with HLA-A*68:01 (setting [3]) it was 477 nM; with HLA-A*03:01 (setting [3]) it was 200 nM.

Regarding SSKGLACYR, the Kd is 80.4 nM with HLA-A*11:01 (setting [1]); 37.6 nM in the experiment with HLA-A*31:01 (setting [1]); 25.6 nM with HLA-A*33:01 (setting [1]); 5.33 nM in the experiment with HLA-A*68:01 (setting [1]); 12800 nM with HLA-A*03:01 (setting [1]).

For SVKTQFNYFK, the Kd with HLA-A*11:01 (setting [2]) stood at 21.1 nM; with HLA-A*31:01 (setting [2]), 24.1 nM; with HLA-A*33:01 (setting [2]), 808 nM; with HLA-A*68:01 (setting [2]), 80 nM; with HLA-A*03:01 (setting [2]) it was 144 nM.

In the case of SVPLPCQLMY, the Kd was 38 nM in the experiment with HLA-A*11:01 (setting [1]); at least 23200 nM with HLA-A*31:01 (setting [1]); at least 53100 nM with HLA-A*33:01 (setting [1]); 14400 nM with HLA-A*68:01 (setting [1]); 413 nM with HLA-A*03:01 (setting [1]).

In the case of TAIAKCNLDH, the Kd with HLA-A*11:01 (setting [3]) was at least 69700 nM; with HLA-A*31:01 (setting [3]) it was 929 nM; with HLA-A*33:01 (setting [3]) it was at least 34200 nM; with HLA-A*68:01 (setting [3]), 7070 nM; in the experiment with HLA-A*03:01 (setting [3]), at least 70000 nM.

As to TFIDVHIPK, the Kd was determined as 0.921 nM with HLA-A*11:01 (setting [1]); 2.36 nM with HLA-A*31:01 (setting [1]); 1.05 nM with HLA-A*33:01 (setting [1]); 11.4 nM with HLA-A*68:01 (setting [1]); 187 nM with HLA-A*03:01 (setting [1]).

The values above are taken from the Immune Epitope Database (IEDB).
